Assay results reported in article PMC8909805, “Anticancer Activity of (S)-5-Chloro-3-((3,5-dimethylphenyl)sulfonyl)-N-(1-oxo-1-((pyridin-4-ylmethyl)amino)propan-2-yl)-1H-indole-2-carboxamide (RS4690), a New Dishevelled 1 Inhibitor” (Cancers, 2022).

T1: DVL1 binding to FZD4 (Homo sapiens, UniProt O14640)
T1 construct: host or cells: HEK293
T1 sequence (O14640 1-695): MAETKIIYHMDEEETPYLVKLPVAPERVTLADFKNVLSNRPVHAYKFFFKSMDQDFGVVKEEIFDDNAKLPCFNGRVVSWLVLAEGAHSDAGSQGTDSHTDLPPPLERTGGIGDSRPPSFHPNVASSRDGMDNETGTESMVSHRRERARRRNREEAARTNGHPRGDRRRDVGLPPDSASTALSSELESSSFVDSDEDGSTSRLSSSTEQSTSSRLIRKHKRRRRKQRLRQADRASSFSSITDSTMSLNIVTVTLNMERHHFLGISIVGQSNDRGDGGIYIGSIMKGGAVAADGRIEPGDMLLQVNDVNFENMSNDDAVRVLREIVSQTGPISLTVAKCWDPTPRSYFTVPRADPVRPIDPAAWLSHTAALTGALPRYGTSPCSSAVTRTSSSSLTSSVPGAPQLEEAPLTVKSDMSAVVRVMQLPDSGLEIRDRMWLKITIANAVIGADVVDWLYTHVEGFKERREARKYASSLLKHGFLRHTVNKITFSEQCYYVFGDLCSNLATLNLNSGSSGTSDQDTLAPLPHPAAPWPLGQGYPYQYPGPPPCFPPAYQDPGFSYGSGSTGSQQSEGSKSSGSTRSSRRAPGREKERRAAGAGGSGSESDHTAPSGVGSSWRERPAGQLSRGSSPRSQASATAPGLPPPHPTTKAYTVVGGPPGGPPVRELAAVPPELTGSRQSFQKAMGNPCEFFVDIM


Assays:
DVL1 binding to FZD4 = molecular target: T1, DVL1 binding to FZD4; experiment: Inhibition of DVL1 (DVL-GFP) recruitment by FZD4 at the plasma membrane of HEK293 cells; format: cell-based; conditions: HEK293 cells co-transfected with HA-FZD4 and GFP-DVL-1; 24 h treatment; read-out: EC50 ± SD DVL1 Binding Inhibition
Method: HEK293 cells were seeded in 96-well tissue culture plates at a density of 5 × 10 ^3/well. After 16–24 h seeding, cells were co-transfected with HA-FZD4-wt (0.04 µg/well) and GFP-tagged DVL-1 (0.04 µg/well) using PEI (0.25 µL/well) in a final volume of 100 µL/well. After 24 h of transfection, the medium was replaced and supplemented with the indicated compounds diluted in culture medium. After 24 h of treatment, cells were fixed in 3.7% formaldehyde freshly diluted in PBS for 30 min at RT, quenched with 0.1 M glycine/PBS for 30 min at RT, and washed with PBS. Samples were observed under a Leica confocal fluorescent microscope. Inhibition of DVL recruitment was measured by counting the percentage of cells losing GFP-DVL-1 localization on the PM. Experiments were performed in triplicate, and the standard deviations are indicated.
The crucial role played by PDZ domains in the spreading of cellular signals and their aberrant activations in many human diseases makes the PDZ domains very attractive targets for drug discovery. […] To identify new DVL1 inhibitors, we followed a virtual screening approach by fixing as the main filter a pharmacophoric model. We speculated that compound 2, the recently reported inhibitor of NHERF1 PDZ1 domain [26], may be able also to bind the DVL PDZ domain. The activity of compound 2 was assayed in HEK293 cells transiently expressing both HA-tagged-FZD4 (HA-FZD4) and the chimeric construct DVL-GFP. In the absence of HA-FZD4, DVL-GFP is localized in punctate intracellular structures known as signalosomes. In the presence of FZD-4 expression, DVL-GFP is recruited on the PM of the cell showing a drastic change in localization. As previously reported, drugs acting as inhibitors of FZD4/DVL binding reduce the amount of DVL-GFP recruited on the PM. […] Thus, we used the information gained from the binding mode of compound 2 to design a pharmacophore model that would lead to the identification of new DVL1 PDZ binders. At the same time, to better distinguish between the inhibitory activities of DVL1 and NHERF1, we added a new query to the pharmacophore model. Actually, comparing the PDZ structures of the studied proteins, we identified a significant difference. The upper part of the carboxylic binding loop was delimited by Tyr24, Ile79 and Val86 for NHERF1, while we observed Leu12, Val75 and Ile81, respectively, for DVL1. […] This peculiar feature of the DVL1 PDZ was included in our pharmacophore model by adding a hydrophobic query to obtain the required selectivity (Figure S1, Supplementary Materials). […] Thus, for each molecule, we obtained 10 conformations, and all of the proposed binding poses (7000 molecules per 10 conformations) were scored by the fitting to the pharmacophore model. […]

HA-tagged FZD4wt (human) = HA-tagged FZD4wt (human) (UniProt Q9ULV1)
HA-tagged FZD4wt (human), sequence (Q9ULV1 37-537): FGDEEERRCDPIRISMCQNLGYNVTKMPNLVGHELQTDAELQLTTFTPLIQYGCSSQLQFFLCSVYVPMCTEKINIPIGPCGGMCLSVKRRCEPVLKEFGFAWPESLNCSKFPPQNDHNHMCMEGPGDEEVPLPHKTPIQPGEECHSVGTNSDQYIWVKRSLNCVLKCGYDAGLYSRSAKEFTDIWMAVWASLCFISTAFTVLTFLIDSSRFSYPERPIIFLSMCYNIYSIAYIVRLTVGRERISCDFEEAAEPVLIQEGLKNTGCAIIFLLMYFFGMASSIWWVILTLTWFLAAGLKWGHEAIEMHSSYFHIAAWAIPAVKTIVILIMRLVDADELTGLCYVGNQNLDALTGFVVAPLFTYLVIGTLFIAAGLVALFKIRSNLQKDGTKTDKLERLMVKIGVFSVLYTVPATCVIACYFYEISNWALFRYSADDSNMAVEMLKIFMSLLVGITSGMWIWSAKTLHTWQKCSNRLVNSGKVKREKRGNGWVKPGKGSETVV

Molecule	EC50 (DVL1 binding to FZD4) [µM]	EC50 of the small molecule 2 for inhibition of GFP-DVL-1 recruitment to the plasma membrane by HA-FZD4 in HEK293 cells (percentage of cells losing PM localisation; 'DVL1 Binding Inhibition') (HA-tagged FZD4wt (human)) [µM]	EC50 of the small molecule (R)-1 for inhibition of GFP-DVL-1 recruitment to the plasma membrane by HA-FZD4 in HEK293 cells (percentage of cells losing PM localisation; 'DVL1 Binding Inhibition') (HA-tagged FZD4wt (human)) [µM]	EC50 of the small molecule (S)-1 for inhibition of GFP-DVL-1 recruitment to the plasma membrane by HA-FZD4 in HEK293 cells (percentage of cells losing PM localisation; 'DVL1 Binding Inhibition') (HA-tagged FZD4wt (human)) [µM]
O=C(Nc1ccc(CO)cc1)c1[nH]c2ccc(Cl)cc2c1Cc1ccccc1 [Compound 2, 3-benzyl-5-chloro-N-(4-(hydroxymethyl)phenyl)-1H-indole-2-carboxamide, reference compound]	5.1 ± 0.09			
GFP-tagged DVL-1 (natural protein) MAETKIIYHMDEEETPYLVKLPVAPERVTLADFKNVLSNRPVHAYKFFFKSMDQDFGVVKEEIFDDNAKLPCFNGRVVSWLVLAEGAHSDAGSQGTDSHTDLPPPLERTGGIGDSRPPSFHPNVASSRDGMDNETGTESMVSHRRERARRRNREEAARTNGHPRGDRRRDVGLPPDSASTALSSELESSSFVDSDEDGSTSRLSSSTEQSTSSRLIRKHKRRRRKQRLRQADRASSFSSITDSTMSLNIVTVTLNMERHHFLGISIVGQSNDRGDGGIYIGSIMKGGAVAADGRIEPGDMLLQVNDVNFENMSNDDAVRVLREIVSQTGPISLTVAKCWDPTPRSYFTVPRADPVRPIDPAAWLSHTAALTGALPRYGTSPCSSAVTRTSSSSLTSSVPGAPQLEEAPLTVKSDMSAVVRVMQLPDSGLEIRDRMWLKITIANAVIGADVVDWLYTHVEGFKERREARKYASSLLKHGFLRHTVNKITFSEQCYYVFGDLCSNLATLNLNSGSSGTSDQDTLAPLPHPAAPWPLGQGYPYQYPGPPPCFPPAYQDPGFSYGSGSTGSQQSEGSKSSGSTRSSRRAPGREKERRAAGAGGSGSESDHTAPSGVGSSWRERPAGQLSRGSSPRSQASATAPGLPPPHPTTKAYTVVGGPPGGPPVRELAAVPPELTGSRQSFQKAMGNPCEFFVDIM		5.1	29.5	0.49
